± gives the uncertainty stated by the source.
B1: Chromodomain-helicase-DNA-binding protein 5, residues 338 to 390; numbered along this chain, Q8TDI0 (parent)
chain: YETDHQDYCEVCQQGGEIILCDTCPRAYHLVCLDPELEKAPEGKWSCPHCEKE
B2: Membrane-associated guanylate kinase, WW and PDZ domain-containing protein 1, residues 352 to 401; numbered along this chain, Q96QZ7 (parent)
chain: TEELDSELELPAGWEKIEDPVYGIYYVDHINRKTQYENPVLEAKRKKQLE

Variants of: B1
Assay: abundance fitness (aPCA) (normalised: wild type 0, dead -1); higher = more abundant; growth selection in yeast, the domain comes from the species named
Conditions: Homo sapiens

Row | Variant | abundance fitness
1 | E51C | -0.123 ± 0.19
2 | E51D | -0.114 ± 0.15
3 | E51V | -0.209 ± 0.099
4 | E51K | 0.031 ± 0.2
5 | E51M | -0.401 ± 0.17
6 | E51W | -0.25 ± 0.18
7 | E51I | -0.387 ± 0.16
8 | E51P | -0.367 ± 0.15
9 | E51L | -0.105 ± 0.1
10 | E51N | 0.086 ± 0.19
11 | E51Q | -0.005 ± 0.15
12 | E51S | -0.365 ± 0.11
13 | E51T | 0.088 ± 0.14
14 | E51A | -0.12 ± 0.093
15 | E51R | -0.396 ± 0.12
16 | E51Y | -0.207 ± 0.21
17 | H49Y | -0.042 ± 0.2
18 | H49W | -0.69 ± 0.3
19 | H49P | -0.024 ± 0.26
20 | H49M | -0.234 ± 0.42
21 | H49K | 0.041 ± 0.41
22 | H49A | -0.011 ± 0.2

Row | Variant | abundance fitness
23 | H49R | -0.291 ± 0.16
24 | H49G | 0.071 ± 0.16
25 | H49L | -0.176 ± 0.2
26 | H49N | 0.104 ± 0.32
27 | H49D | 0.422 ± 0.32
28 | H49Q | 0.032 ± 0.23
29 | H49T | 0.139 ± 0.26
30 | H49S | -0.312 ± 0.24
31 | H49E | -0.225 ± 0.26
32 | H49V | -0.45 ± 0.18
33 | E38V | -0.157 ± 0.12
34 | E38W | -0.127 ± 0.15
35 | G43K | 0.057 ± 0.17
36 | G43S | 0.087 ± 0.1
37 | G43L | -0.096 ± 0.11
38 | G43C | -0.117 ± 0.12
39 | G43P | 0.032 ± 0.12
40 | G43M | -0.088 ± 0.17
41 | G43T | 0.235 ± 0.13
42 | G43A | -0.192 ± 0.13
43 | G43V | 0.029 ± 0.11
44 | G43Y | -0.323 ± 0.18

Row | Variant | abundance fitness
45 | G43R | -0.11 ± 0.098
46 | G43W | -0.223 ± 0.14
47 | G43I | -0.169 ± 0.16
48 | G43H | 0.166 ± 0.16
49 | G43Q | -0.074 ± 0.15
50 | G43N | 0.23 ± 0.15
51 | G43F | -0.138 ± 0.14
52 | G43E | 0.029 ± 0.15
53 | G43D | 0.044 ± 0.14
54 | K44Y | -0.599 ± 0.21
55 | K44Q | -0.053 ± 0.13
56 | K44L | -0.009 ± 0.12
57 | K44W | -0.236 ± 0.13
58 | K44E | 0.031 ± 0.12
59 | K44H | -0.341 ± 0.22
60 | K44T | 0 ± 0.13
61 | K44A | -0.255 ± 0.15
62 | K44D | 0.216 ± 0.16
63 | K44M | 0.116 ± 0.15
64 | K44R | 0.14 ± 0.099
65 | K44C | -0.051 ± 0.13
66 | K44F | -0.259 ± 0.17

Row | Variant | abundance fitness
67 | K44G | 0.065 ± 0.093
68 | K44N | -0.237 ± 0.2
69 | K44P | -0.255 ± 0.14
70 | K44S | -0.125 ± 0.12
71 | K44I | -0.32 ± 0.21
72 | E42A | -0.113 ± 0.11
73 | E42R | -0.085 ± 0.11
74 | E42D | -0.013 ± 0.18
75 | E42H | -0.068 ± 0.23
76 | E42W | -0.318 ± 0.15
77 | E42T | 0.014 ± 0.13
78 | E42L | -0.05 ± 0.1
79 | E42I | -0.019 ± 0.22
80 | E42Y | -0.076 ± 0.19
81 | E42Q | -0.224 ± 0.17
82 | E42M | 0.138 ± 0.16
83 | E42K | -0.563 ± 0.18
84 | E42V | 0.068 ± 0.11
85 | E42F | -0.413 ± 0.18
86 | E42S | -0.241 ± 0.11
87 | E42P | -0.184 ± 0.13
88 | E42G | -0.117 ± 0.1

Variants of: B2
Assay: as above
Conditions: Homo sapiens

Row | Variant | abundance fitness
89 | D5A | 0.047 ± 0.071
90 | D5Q | -0.128 ± 0.05
91 | D5V | 0.001 ± 0.044
92 | D5M | -0.421 ± 0.11
93 | D5I | 0 ± 0.057
94 | D5C | 0.032 ± 0.062
95 | D5H | -0.192 ± 0.082
96 | D5P | 0.023 ± 0.071
97 | D5F | -0.006 ± 0.17
98 | D5T | 0.059 ± 0.053
99 | D5W | -0.303 ± 0.072
100 | D5K | 0.086 ± 0.088
101 | L4F | -0.051 ± 0.097
102 | L4Y | -0.444 ± 0.29
103 | L4G | -0.102 ± 0.059
104 | L4K | 0.019 ± 0.059
105 | L4S | -0.037 ± 0.06
106 | L4I | 0.349 ± 0.11
107 | L4T | -0.021 ± 0.082
108 | L4V | -0.064 ± 0.064
109 | L4A | -0.101 ± 0.075
110 | L4W | -0.237 ± 0.073
111 | L4N | -0.333 ± 0.14
112 | L4R | 0.103 ± 0.058
113 | L4H | 0.202 ± 0.095
114 | L4Q | -0.067 ± 0.081
115 | L4E | -0.239 ± 0.044

Row | Variant | abundance fitness
116 | L4D | -0.682 ± 0.14
117 | L4C | -0.593 ± 0.071
118 | S6R | 0.103 ± 0.054
119 | S6T | 0.142 ± 0.091
120 | S6K | -0.148 ± 0.1
121 | S6L | -0.073 ± 0.062
122 | S6V | 0.062 ± 0.054
123 | S6Q | -0.046 ± 0.053
124 | S6G | -0.041 ± 0.06
125 | S6C | -0.447 ± 0.12
126 | S6P | -0.358 ± 0.1
127 | S6N | -0.171 ± 0.13
128 | S6M | -0.179 ± 0.1
129 | S6A | -0.033 ± 0.07
130 | S6W | -0.44 ± 0.1
131 | S6H | -0.203 ± 0.073
132 | S6I | -0.184 ± 0.083
133 | S6F | -0.231 ± 0.047
134 | S6D | -0.141 ± 0.055
135 | S6E | -0.183 ± 0.085
136 | E2P | -0.266 ± 0.059
137 | E2K | -0.214 ± 0.17
138 | E2T | 0.129 ± 0.1
139 | E2G | -0.086 ± 0.057
140 | E2V | -0.02 ± 0.042
141 | E2H | -0.523 ± 0.24
142 | E2C | 0.319 ± 0.12

Row | Variant | abundance fitness
143 | E2M | -0.265 ± 0.14
144 | E2L | -0.35 ± 0.15
145 | E2R | -0.095 ± 0.057
146 | E2Q | -0.145 ± 0.12
147 | E2S | -0.191 ± 0.096
148 | E2A | -0.185 ± 0.052
149 | E2N | 0.372 ± 0.12
150 | E2D | -0.314 ± 0.1
151 | E2W | 0.113 ± 0.1
152 | E2Y | -0.403 ± 0.24
153 | T1R | 0.104 ± 0.18
154 | T1Y | -0.155 ± 0.074
155 | T1L | -0.128 ± 0.047
156 | T1M | -0.074 ± 0.16
157 | T1C | -0.35 ± 0.26
158 | T1A | -0.474 ± 0.22
159 | T1I | -0.379 ± 0.27
160 | T1S | 0.004 ± 0.078
161 | T1V | -0.098 ± 0.089
162 | T1W | -0.351 ± 0.2
163 | T1G | -0.118 ± 0.056
164 | T1E | 0.069 ± 0.11
165 | E3Q | -0.226 ± 0.41
166 | E3A | -0.425 ± 0.34
167 | E3P | -0.744 ± 0.33

— the Human Domainome abundance scans (Beltran et al. 2025)
